This series concerns the molecule itself. Kind of series: gel filtration (Superdex 200) of His-tagged LP4 purified without detergent; lipid nanodisc. The text has this: In some embodiments, the presently disclosed compositions comprise a distinct form of polypeptides that are specifically engineered to spontaneously solubilize membrane proteins without a detergent intermediary (i.e., “LP” molecules). […] For example, in some embodiments the polypeptides comprise multiple repeats of an amphipathic helical fragment of ApoA1. […] The eluted protein was run on a gel filtration column (Superdex 200, FIG. 3, middle panel). […] The protein behaved as expected: it self-assembled as a dimer of appropriate size (as in FIG. 2) and solubilized a membrane fragment.

Experimental findings from patent US20110230650A1 (NORTHWESTERN UNIVERSITY, published 2011) are described below.

B1: histidine-tagged LP4 (designed binder)
chain: FQKKWQEEMELYRQKVEPLRAELQEGARQKLHELQEKLSPLGEEMRDRARAHVDAFQKKWQEEMELYRQKVEPLRAELQEGARQKLHELQEKLSPLGEEMRDRARAHVDAFQKKWQEEMELYRQKVEPLRAELQEGARQKLHELQEKLSPLGEEMRDRARAHVDAFQKKWQEEMELYRQKVEPLRAELQEGARQKLHELQEKLSPLGEEMRDRARAHVDA
notes: Histidine-tagged LP4 purified without detergent as an empty, lipid-filled nanodisc; not shown: histidine tag
In the case of B1, the binding result is “binds”.
